Results as given in article PMC8028314, “Sae2 and Rif2 regulate MRX endonuclease activity at DNA double-strand breaks in opposite manners” (Cell Reports, 2021).

Target: T1, Mre11-Rad50 complex (S. cerevisiae, UniProt P32829 1-692; P12753 1-1312)
T1 construct: Mre11, S. cerevisiae; Rad50, S. cerevisiae; untagged; they were not measured here; also called wild-type MR; source: Sf9 cells, purified (NiNTA, HiTrap SP HP, HiTrap Q HP); copies: 2 + 2
Assay: pull-down; MBP-Rif2-his from Sf9 lysate bound to amylose resin, washed with 1 M then 0.1 M NaCl buffer (50 mM Tris-HCl pH 7.5, 0.2% NP40, 2 mM EDTA); recombinant MR variants (1 ug) added, 1 h at 4°C; washed with 0.1 M NaCl buffer; eluted with 20 mM maltose and cleaved with PreScission protease; Ponceau (Rif2) and western blots (anti-Rad50, anti-His)
Details: both partners purified

T1 sequence (P32829 whole entry, chain 1 of 2): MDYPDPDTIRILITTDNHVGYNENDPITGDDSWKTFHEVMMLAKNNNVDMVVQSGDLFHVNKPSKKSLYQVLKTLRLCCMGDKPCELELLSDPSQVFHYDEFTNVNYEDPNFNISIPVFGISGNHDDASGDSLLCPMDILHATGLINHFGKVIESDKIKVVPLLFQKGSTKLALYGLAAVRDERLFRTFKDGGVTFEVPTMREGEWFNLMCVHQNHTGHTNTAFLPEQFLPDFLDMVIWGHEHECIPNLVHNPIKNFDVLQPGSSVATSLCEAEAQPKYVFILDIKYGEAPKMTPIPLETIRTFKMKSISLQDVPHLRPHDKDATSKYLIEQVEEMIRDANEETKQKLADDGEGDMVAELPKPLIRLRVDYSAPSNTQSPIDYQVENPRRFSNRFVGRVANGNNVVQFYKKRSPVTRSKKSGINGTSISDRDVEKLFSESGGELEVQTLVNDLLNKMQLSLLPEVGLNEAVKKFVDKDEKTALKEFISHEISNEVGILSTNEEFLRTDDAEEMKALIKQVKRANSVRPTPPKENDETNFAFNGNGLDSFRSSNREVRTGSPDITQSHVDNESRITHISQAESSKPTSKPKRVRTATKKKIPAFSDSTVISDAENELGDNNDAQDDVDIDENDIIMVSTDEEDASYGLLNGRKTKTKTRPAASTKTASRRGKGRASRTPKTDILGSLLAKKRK
T1 sequence (P12753 whole entry, chain 2 of 2): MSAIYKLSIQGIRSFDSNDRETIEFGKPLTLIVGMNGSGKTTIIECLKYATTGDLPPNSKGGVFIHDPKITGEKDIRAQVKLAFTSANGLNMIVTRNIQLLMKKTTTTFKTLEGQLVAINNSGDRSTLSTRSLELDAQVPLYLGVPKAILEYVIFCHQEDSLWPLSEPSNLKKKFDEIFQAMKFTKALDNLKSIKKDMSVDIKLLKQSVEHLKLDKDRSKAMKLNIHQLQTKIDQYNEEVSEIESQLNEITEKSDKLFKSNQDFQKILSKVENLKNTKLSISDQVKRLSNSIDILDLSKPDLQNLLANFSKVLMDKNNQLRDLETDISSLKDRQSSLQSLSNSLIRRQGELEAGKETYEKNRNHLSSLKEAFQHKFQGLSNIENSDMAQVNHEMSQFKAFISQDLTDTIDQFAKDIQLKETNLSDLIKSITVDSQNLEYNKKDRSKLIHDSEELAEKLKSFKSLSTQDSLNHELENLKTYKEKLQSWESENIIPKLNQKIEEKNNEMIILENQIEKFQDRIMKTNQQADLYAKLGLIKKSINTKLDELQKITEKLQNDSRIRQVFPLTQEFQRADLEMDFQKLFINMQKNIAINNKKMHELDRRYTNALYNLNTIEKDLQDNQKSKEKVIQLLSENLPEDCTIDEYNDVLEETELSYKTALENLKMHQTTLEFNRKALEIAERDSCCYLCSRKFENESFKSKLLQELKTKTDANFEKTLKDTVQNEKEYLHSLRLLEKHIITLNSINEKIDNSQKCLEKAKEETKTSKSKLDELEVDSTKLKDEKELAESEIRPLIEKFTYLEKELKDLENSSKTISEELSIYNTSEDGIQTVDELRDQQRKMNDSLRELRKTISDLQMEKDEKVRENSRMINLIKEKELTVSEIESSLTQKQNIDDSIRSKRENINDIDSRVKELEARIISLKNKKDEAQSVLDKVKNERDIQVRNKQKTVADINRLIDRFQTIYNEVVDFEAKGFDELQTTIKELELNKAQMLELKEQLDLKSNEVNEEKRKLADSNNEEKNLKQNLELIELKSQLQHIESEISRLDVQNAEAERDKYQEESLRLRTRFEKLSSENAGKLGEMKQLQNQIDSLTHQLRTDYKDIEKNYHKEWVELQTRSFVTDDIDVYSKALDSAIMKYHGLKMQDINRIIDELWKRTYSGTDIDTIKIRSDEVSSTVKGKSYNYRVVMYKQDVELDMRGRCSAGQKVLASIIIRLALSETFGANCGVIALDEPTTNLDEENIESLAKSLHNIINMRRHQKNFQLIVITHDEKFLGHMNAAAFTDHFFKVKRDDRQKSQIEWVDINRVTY

binding result: binds
B1: MBP-Rif2-his (natural protein, S. cerevisiae, UniProt Q06208 1-395, looked up)
chain: MEHVDSDFAPIRRSKKVVDSDKIVKAISDDLEQKNFTVLRKLNLVPIKKSVSSPKVCKPSPVKERVDHVFYQKFKSMALQELGTNYLSISYVPSLSKFLSKNLRSMKNCIVFFDKVEHIHQYAGIDRAVSETLSLVDINVVIIEMNDYLMKEGIQSSKSKECIESMGQASYSGQLDFEASEKPSNHTSDLMMMVMRKINNDESIDHIVYFKFEQLDKLSTSTIIEPSKLTEFINVLSVLEKSNNIAFKVLIYSNNVSISSLLSTSLKKKLNTKYTVFEMPILTCAQEQEYLKKMIKFTFDSGSKLLQSYNSLVTCQLNNKESNLAIFFEFLKVFPHPFTYLFNAYTEIIVQSRTFDELLDKIRNRLTIKNYPHSAYNFKKNQRLPLKLTRKVHDR
notes: Rif2, S. cerevisiae; recombinant full-length Rif2; The MBP tag was cleaved with PreScission protease only after elution from the resin; In the ATPase and nuclease assays purified Rif2-his with MBP cleaved off was used; The construct was a gift from A. Bianchi; also called recombinant Rif2; not shown: MBP, N-terminal, kept; 10xHis, C-terminal, kept
